Biological target: GABARAP (Homo sapiens, UniProt O95166)
Experiment: MST, SPR

Sequence of GABARAP (O95166 1-116): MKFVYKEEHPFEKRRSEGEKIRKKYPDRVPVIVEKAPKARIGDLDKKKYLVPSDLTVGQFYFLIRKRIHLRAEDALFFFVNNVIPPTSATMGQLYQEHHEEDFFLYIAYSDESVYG

Kd: ~3000 nM
B1: K1 peptide (peptide)
chain: DATYTWEHLAWP
